For assay [1], the target named is T1, recombinant human BCMA-mFc fusion protein (human; mouse).
T1 construct: also called huBCMA-mFc
T1 chain: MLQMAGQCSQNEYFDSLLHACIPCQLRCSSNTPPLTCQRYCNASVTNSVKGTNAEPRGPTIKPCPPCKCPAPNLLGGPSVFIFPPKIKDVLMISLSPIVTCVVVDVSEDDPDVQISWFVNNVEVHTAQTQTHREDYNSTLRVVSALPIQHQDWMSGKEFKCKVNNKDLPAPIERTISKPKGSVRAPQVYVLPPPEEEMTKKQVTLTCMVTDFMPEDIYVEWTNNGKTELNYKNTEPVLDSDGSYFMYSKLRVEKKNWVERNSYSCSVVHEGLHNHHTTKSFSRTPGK
Briefly: indirect ELISA, coated antigen. As for the experimental part: Procedures: Human, mouse and monkey BCMA antigens were prepared into 0.5 μg/mL coating solutions with PBS buffer. The coating solutions were added to a microplate at 100 μL/well and incubated at 4° C. overnight. The residual coating solution was discarded before 3% BSA was added at 300 μL/well, and the plate was blocked for 3 h at room temperature. The microplate was washed once with PB ST (PBS containing 0.1% of TWEEN 20) at 300 μL/well. The human-mouse chimeric monoclonal antibodies were serially 3-fold diluted from 10 μg/mL to the 9th concentration. The dilutions were added to the microplate at 100 μL/well. After a 1-h incubation at room temperature, the microplate was washed thrice with PB ST at 300 μL/well. The mouse anti-human IgG Fc antibody [HRP] mAb was 25,000-fold diluted with 1% BSA-PBST and added at 100 μL/well. After another 1-h incubation at room temperature, the microplate was washed thrice with PBST at 300 μL/well and dried. The TMB chromogenic solution was added at 100 μL/well. After a 5-min reaction at room temperature, 2 M H₂SO₄ was added at 100 μL/well to terminate the reaction. The microplate was placed on a microplate reader (Molecular Devices, SPECTRA Max plus 384) and the absorbance OD450 value was read at 450 nm wavelength.

In assay [2] the target is T2, human BCMA on cells (NCI-H929, U266B1, HEK293 huBCMA) (human, UniProt Q02223 1-184).
T2 construct: whole, on cells; also called cell surface BCMA antigen
T2 sequence (looked up): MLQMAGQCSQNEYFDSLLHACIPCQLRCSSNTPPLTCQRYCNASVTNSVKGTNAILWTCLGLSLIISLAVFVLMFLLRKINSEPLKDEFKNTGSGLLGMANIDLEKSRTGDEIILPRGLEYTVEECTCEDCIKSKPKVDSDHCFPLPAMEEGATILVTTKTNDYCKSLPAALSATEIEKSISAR
Briefly: flow cytometry on U266B1 cells. On the procedure:
(§1) Procedures: The cells were resuspended in PBS, and the cell density was adjusted to 2×10^5 cells/well. Human-mouse chimeric monoclonal antibodies were added to a 96-well plate at 50 μL/well and serially 3-fold diluted from 3000 nM to the 9th concentration. The plate was incubated for 1 h at 4° C. 150 μL of precooled PBS containing 1% of FBS was added into the 96-well plate after the co-incubation with the primary antibody was finished. The mixtures were centrifuged at 300×g for 5 min and the supernatants were discarded. The above procedures were repeated once. The fluorescent secondary antibody PE anti-human IgG Fc (Biolegend, 409304) was added at 80 μL/well. The plate was incubated at 4° C. for 30 min. 150 μL of precooled PBS containing 1% of FBS was added into the 96-well plate after the co-incubation with the secondary antibody was finished. The 96-well plate was centrifuged at 300×g for 5 min and the supernatants were discarded. The above procedures were repeated once. The cells were resuspended in 100 μL of PBS containing 1% of FBS and detected on a flow cytometry (BD Accuri™ C6).

For assay [3], the target named is T3, recombinant human BCMA-his fusion protein (ACRO Biosystem, Cat. No. BCA-H522y) (human, UniProt Q02223 1-54).
T3 construct: extracellular domain; Bought protein; also called huBCMA-his; hu BCMA-his; not shown: His tag
T3 sequence (looked up): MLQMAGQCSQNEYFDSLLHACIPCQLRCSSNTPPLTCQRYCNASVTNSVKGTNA
Description: ELISA, coated antigen. On the procedure: Procedures: huBCMA-his and cynoBCMA-his antigens were prepared into 0.5 μg/mL coating solutions with PBS (pH 7.4). The coating solutions were added to a microplate at 100 μL/well and incubated at 4° C. overnight. The residual coating solution was discarded before 3% BSA was added at 300 μL/well, and the plate was blocked for 3 h at room temperature. The microplate was washed once with PB ST at 300 The stock humanized monoclonal antibody solutions were serially 3-fold diluted to the 11th concentration. The dilutions were added to the microplate at 100 μL/well. After a 1-h incubation at room temperature, the microplate was washed thrice with PBST at 300 The HRP-conjugated 6*His, His-Tag antibody was 25,000-fold diluted with 1% BSA-PBST and added at 100 After another 1-h incubation at room temperature, the microplate was washed thrice with PB ST at 300 μL/well and dried. The TMB chromogenic solution was added at 100 μL. After a 5-min reaction at room temperature, 2 M H2504 was added at 100 μL/well to terminate the reaction. The microplate was placed on a microplate reader (Molecular Devices, SPECTRA Max plus 384) and the absorbance OD450 value was read at 450 nm wavelength.

Assay [4] deals with T2, human BCMA on cells (NCI-H929, U266B1, …). Description: flow cytometry on NCI-H929 cells. On the procedure:
as §1

Assay [5] addresses T3, recombinant human BCMA-his fusion …. Briefly: competitive ELISA, coated huBCMA-his, competitor 83A10-biotin. On the procedure: The 96-well microplate was treated with 100 μL of 0.5 μg/mL huBCMA-his in PBS and incubated overnight at 4° C. The plate was then washed thrice with PBS washing buffer containing 0.1% of Tween-20 and blocked with 300 μL of PBS containing 1% of BSA for 2 h. 100 μL of each BCMA antibody was added to the plate. […] The plate was incubated at 37° C. for 1 h, and unbound secondary antibody was washed with PBS washing buffer containing 0.1% of Tween-20. The TMB chromogenic solution was added at 100 μL/well. After a 5-min reaction at room temperature, 2 M H₂SO₄ was added at 100 μL/well to terminate the reaction. The microplate was placed on a microplate reader (Molecular Devices, SPECTRA Max plus 384) and the absorbance OD450 value was read at 450 nm wavelength.

B1: human-mouse chimeric antibody c-mAb3 (antibody, human IgG1, V domains shown)
VH: EVQLQQSGPELVKPGASVKILCKASGYTITDYNMDWVKRSHGKSLEWIGNINPHNGGSIYNQKFKGKATLTVDKSSSTAFMELRSLTSEDTAVYYCARGDATLVLDYWGQGTSLTVSS
VL: DIVLTQSPASLAVSLGQRATISCRASKSVSTSGLSYMHWYQQKPGQPPKVLIYLASNLESGVPARFSGSGSGTDFTLNIHPVEEEDAATYYCQHSRELPPTFGAGTKLELK
notes: not shown: human IgG1 heavy chain constant region, GenBank No. AK303185.1; human kappa light chain constant region, GenBank No. MG815648.1
As for B1, the EC50 was 0.794 nM in assay [1], 81.5 nM in assay [2], 0.0155 nM in assay [3] and 8.25 nM in assay [4]. Besides, the IC50 in assay [5] was found to be 1 µg/mL.

B2: human-mouse chimeric antibody c-mAb2 (antibody, human IgG1, V domains shown)
VH: QVQLQQSDAELVKPGTSVKISCKVSGYTFTDHTIHWMKQRPEQGLEWIGYIYPRNGNTKYNEKFKGKATLTADKSSSTAYMHLNSLTSEDSAVYFCARYDYDGYFDVWGTGTTVTVSS
VL: DVVMTQTPLSLPVSLGDQASISCRSSQSHVHSDGHTYLHWYLQKPGQSPELLIYKVSNRFSGVPDRFSGSGSGTDFTLKISRVEAEDLGVYFCSQNTHFPWTFGGGTKLEIK
notes: as for B1
For the molecule B2, the EC50 in assay [1] worked out at 0.427 nM; in assay [2], 14.7 nM; in assay [3] it was 0.0257 nM; in assay [4], 5.7 nM. Further, in assay [5], the IC50 came to 8 µg/mL.
